From article PMC7614924

Target: 0N4R isoform of human tau bearing P301S with a C-terminal Venus tag (Sarkosyl-insoluble filaments from seeded HEK293 cells) (human)

In the case of “Recombinant N-terminally 6xHis-tagged human P301S 0N4R tau (heparin-assembled fibrils) (natural protein)”, the percent of HEK293 P301S tau-Venus cells with aggregates (Venus fluorescence) 24 h after 100 nM recombinant tau fibrils with lipofectamine is reported as 20%.
